The values that follow come from PMC8934646, “The intrinsically disordered TSSC4 protein acts as a helicase inhibitor, placeholder and multi-interaction coordinator during snRNP assembly and recycling” (Nucleic Acids Research, 2022).

This experiment concerns the target T1, SNRNP200 helicase region (SNRNP200^HR) (human, UniProt O75643 395-2129).
T1 construct: human SNRNP200 helicase region, residues 395-2129
Nature of the experiment: SEC; competitive binding: 5 μM pre-formed SNRNP200^HR-FBP21^200–376 or SNRNP200^HR-C9ORF78 complex incubated with 5 μM GST-TSSC4 in 50 μl, 10 min on ice, then analytical SEC as in a1. The note with it: both partners purified.

T1 sequence (O75643 395-2129): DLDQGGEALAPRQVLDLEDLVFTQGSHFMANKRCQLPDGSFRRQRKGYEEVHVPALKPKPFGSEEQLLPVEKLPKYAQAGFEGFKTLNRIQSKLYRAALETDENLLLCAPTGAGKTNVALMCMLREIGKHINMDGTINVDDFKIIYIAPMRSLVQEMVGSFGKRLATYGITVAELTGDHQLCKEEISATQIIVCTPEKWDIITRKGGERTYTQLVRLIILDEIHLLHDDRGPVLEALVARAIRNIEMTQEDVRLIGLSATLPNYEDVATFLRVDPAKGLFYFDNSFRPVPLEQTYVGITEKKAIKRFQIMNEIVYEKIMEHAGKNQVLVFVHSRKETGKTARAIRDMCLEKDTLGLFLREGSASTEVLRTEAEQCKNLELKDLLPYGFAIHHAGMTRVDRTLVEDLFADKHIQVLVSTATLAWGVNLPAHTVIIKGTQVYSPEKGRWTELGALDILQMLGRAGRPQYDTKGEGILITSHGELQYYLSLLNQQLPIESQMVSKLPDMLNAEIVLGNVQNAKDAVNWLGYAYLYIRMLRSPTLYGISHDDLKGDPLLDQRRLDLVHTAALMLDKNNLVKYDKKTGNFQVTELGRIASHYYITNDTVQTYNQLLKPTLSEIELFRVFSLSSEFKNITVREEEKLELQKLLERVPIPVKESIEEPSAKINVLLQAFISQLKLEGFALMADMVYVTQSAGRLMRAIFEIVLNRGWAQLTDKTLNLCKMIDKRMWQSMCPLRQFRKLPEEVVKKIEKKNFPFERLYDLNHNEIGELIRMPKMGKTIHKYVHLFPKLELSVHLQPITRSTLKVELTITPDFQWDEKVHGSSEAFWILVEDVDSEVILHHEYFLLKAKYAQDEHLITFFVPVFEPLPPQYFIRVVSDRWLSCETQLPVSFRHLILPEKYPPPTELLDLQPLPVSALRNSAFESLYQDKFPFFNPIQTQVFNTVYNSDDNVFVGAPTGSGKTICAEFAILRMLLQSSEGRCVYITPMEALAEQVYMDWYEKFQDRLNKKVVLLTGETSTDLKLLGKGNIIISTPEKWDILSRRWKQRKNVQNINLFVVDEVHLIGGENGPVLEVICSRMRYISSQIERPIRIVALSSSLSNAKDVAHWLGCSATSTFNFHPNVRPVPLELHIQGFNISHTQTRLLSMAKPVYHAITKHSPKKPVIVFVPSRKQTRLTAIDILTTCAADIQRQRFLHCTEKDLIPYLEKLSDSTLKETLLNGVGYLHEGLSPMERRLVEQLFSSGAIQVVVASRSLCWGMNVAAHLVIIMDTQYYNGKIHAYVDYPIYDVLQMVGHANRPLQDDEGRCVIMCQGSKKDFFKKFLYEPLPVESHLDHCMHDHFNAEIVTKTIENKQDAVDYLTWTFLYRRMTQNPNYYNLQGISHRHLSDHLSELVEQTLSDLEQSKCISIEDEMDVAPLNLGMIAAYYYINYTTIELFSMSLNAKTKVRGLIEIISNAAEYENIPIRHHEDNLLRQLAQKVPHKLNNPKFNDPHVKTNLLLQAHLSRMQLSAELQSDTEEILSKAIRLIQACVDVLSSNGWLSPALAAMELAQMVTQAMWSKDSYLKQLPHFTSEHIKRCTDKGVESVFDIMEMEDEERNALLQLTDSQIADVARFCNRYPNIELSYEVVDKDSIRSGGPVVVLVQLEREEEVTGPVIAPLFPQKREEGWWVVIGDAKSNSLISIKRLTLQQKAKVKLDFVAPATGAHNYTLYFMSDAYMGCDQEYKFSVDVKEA

B1: C-terminal fragment of FBP21 (FBP21^200–376) (domain or fragment, human, UniProt O75554 200-376, looked up)
chain: HTSDLPSSKVNENSLGTLDESKSSDSHSDSDGEQEAEEGGVSTETEKPKIKFKEKNKNSDGGSDPETQKEKSIQKQNSLGSNEEKSKTLKKSNPYGEWQEIKQEVESHEEVDLELPSTENEYVSTSEADGGGEPKVVFKEKTVTSLGVMADGVAPVFKKRRTENGKSRNLRQRGDDQ
Regarding B1, the binding result is “binds”.
